Reference: patent US20250320281A1

Assays:
Experiment in all cases: cell-based or functional assay
[1] = molecular target: HIV-1 Env of isolate 92UG037 (HIV-1)
[2] = molecular target: HIV-1 Env of isolate 92WR024 (HIV-1)
[3] = molecular target: HIV-1 Env of isolate 98CN006 (HIV-1)
[4] = molecular target: HIV-1 Env of isolate 98IN022 (subtype C) (HIV-1)
[5] = molecular target: HIV-1 Env of isolate MG RM-D-003 (HIV-1)
[6] = molecular target: HIV-1 Env of isolate MG RM-D-005 (HIV-1)
[7] = molecular target: HIV-1 Env of isolate MGRM-A-010 (subtype A) (HIV-1)
[8] = molecular target: HIV-1 Env of isolate MGRM-AE-001 (subtype AE) (HIV-1)
[9] = molecular target: HIV-1 Env of isolate MGRM-AE-002 (subtype AE) (HIV-1)
[10] = molecular target: HIV-1 Env of isolate MGRM-AE-008 (subtype AE) (HIV-1)
[11] = molecular target: HIV-1 Env of isolate MGRM-Chronic-B-001 (subtype B) (HIV-1)
[12] = molecular target: HIV-1 Env of isolate MGRM-Chronic-B-020 (subtype B) (HIV-1)
[13] = molecular target: HIV-1 envelope glycoprotein (Env) of isolate MGRM-C-014 (HIV-1)
[14] = molecular target: HIV-1 envelope glycoprotein (Env) of isolate MGRM-C-022 (HIV-1)
[15] = molecular target: HIV-1 envelope glycoprotein (Env) of isolate MGRM-C-024 (HIV-1)
[16] = molecular target: HIV-1 envelope glycoprotein (Env) of isolate MGRM-C-028 (HIV-1)
[17] = molecular target: HIV-1 94UG103 Env (pseudovirus, clade A) (HIV-1)
[18] = molecular target: HIV-1 APV6 Env (pseudovirus, clade B) (HIV-1)
[19] = molecular target: HIV-1 Env of isolate MGRM-D-018 (clade D), on pseudovirus (HIV-1)
[20] = molecular target: HIV-1 Env of isolate MGRM-D-024 (clade D pseudovirus) (HIV-1)
[21] = molecular target: HIV-1 Env of isolate TRO.11 (Acute), clade B, on pseudovirus (HIV-1)
[22] = molecular target: HIV-1 Env of pseudovirus MGRM-AE-005 (clade CRF01_AE) (HIV-1)
[23] = molecular target: HIV-1 Env of pseudovirus MGRM-AG-012 (clade CRF_AG) (HIV-1)
[24] = molecular target: HIV-1 Env of pseudovirus MGRM-G-001 (clade G) (HIV-1)
[25] = molecular target: HIV-1 IAVI-C3 envelope glycoprotein (Env) on pseudovirus (HIV-1)
[26] = molecular target: HIV-1 MGRM-C-028 Env (pseudovirus, clade C) (HIV-1)
[27] = molecular target: HIV-1 NL43 Env (pseudovirus, clade B) (HIV-1)
[28] = molecular target: HIV-1 envelope glycoprotein (Env) of isolate MGRM-A-007, clade A (HIV-1)
[29] = molecular target: HIV-1 envelope glycoprotein (Env) of isolate MGRM-A-012, clade A (HIV-1)
[30] = molecular target: HIV-1 Env of isolate MGRM-F1-013 (HIV-1)
[31] = molecular target: HIV-1 Env of isolate MGRM-F1-021 (HIV-1)
[32] = molecular target: HIV-1 Env of isolate MGRM-F1-022 (HIV-1)
[33] = molecular target: HIV-1 APV17 Env (pseudovirus) (HIV-1)
[34] = molecular target: HIV-1 Env of isolate MGRM-AG-011 (HIV-1)
[35] = molecular target: HIV-1 Env of isolate MGRM-Chronic-B-001 (subtype B pseudovirus) (HIV-1)
[36] = molecular target: HIV-1 Env of isolate MGRM-Chronic-B-017 (subtype B pseudovirus) (HIV-1)
[37] = molecular target: HIV-1 Env of isolate MGRM-Chronic-B-018 (subtype B pseudovirus) (HIV-1)
[38] = molecular target: HIV-1 Env of isolate MGRM-D-002 (pseudovirus) (HIV-1)
[39] = molecular target: HIV-1 Env of isolate MGRM-D-004 (pseudovirus) (HIV-1)
[40] = molecular target: HIV-1 Env of isolate MGRM-D-013 (pseudovirus) (HIV-1)
[41] = molecular target: aMLV envelope protein on pseudovirus (negative control)

Sequence of 4995_E20 (PGT-142) (antibody) (VH): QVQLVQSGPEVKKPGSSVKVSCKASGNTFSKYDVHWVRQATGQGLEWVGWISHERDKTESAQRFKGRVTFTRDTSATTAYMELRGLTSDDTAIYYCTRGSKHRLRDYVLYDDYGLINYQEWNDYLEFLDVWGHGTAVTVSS
Sequence of 4995_E20 (PGT-142) (antibody) (VL): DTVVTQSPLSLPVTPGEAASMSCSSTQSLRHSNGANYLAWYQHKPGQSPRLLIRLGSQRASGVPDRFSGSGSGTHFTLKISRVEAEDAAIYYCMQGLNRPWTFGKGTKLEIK
Sequence of 4970_K22 (PGT-144) (antibody) (VH): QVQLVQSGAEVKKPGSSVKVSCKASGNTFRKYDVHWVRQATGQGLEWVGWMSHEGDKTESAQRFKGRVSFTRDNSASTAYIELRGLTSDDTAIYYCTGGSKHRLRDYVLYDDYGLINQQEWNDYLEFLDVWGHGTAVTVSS
Sequence of 4970_K22 (PGT-144) (antibody) (VL): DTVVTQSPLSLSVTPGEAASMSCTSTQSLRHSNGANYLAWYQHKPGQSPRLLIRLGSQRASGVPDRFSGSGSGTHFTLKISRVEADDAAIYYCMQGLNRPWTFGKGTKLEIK
Sequence of 5345_I01 (PGT-137) (antibody) (VH): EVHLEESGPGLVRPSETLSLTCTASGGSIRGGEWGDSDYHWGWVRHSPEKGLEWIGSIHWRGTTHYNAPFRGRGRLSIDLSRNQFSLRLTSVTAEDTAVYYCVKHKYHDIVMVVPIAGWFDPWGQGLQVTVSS
Sequence of 5345_I01 (PGT-137) (antibody) (VL): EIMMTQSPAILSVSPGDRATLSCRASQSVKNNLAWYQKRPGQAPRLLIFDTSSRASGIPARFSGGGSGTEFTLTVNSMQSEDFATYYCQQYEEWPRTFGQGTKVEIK
Sequence of 4993_K13 (PGT-141) (antibody) (VH): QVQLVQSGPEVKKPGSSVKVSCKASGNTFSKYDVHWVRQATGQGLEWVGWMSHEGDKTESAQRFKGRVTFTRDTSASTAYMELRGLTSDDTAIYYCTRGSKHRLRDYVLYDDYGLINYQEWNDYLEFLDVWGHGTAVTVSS
Sequence of 4980_N08 (PGT-143) (antibody) (VH): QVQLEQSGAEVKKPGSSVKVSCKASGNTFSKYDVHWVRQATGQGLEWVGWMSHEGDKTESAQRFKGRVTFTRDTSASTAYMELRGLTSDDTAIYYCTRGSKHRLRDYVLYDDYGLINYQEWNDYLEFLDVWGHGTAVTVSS
Sequence of 4980_N08 (PGT-143) (antibody) (VL): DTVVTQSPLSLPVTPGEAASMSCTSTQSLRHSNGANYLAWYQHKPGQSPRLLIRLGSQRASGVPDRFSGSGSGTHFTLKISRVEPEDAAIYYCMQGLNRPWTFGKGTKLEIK

Substance	IC50 (µg/mL), pseudovirus neutralization [8] [µg/mL]	IC50 (µg/mL), pseudovirus neutralization [9] [µg/mL]	IC50 neutralization [17] [µg/mL]	IC50 neutralization [18] [µg/mL]	IC50, pseudovirus neutralization [19] [µg/mL]	IC50 neutralization [26] [µg/mL]	IC50 neutralization [27] [µg/mL]	IC50 [34] [µg/mL]	IC50 (µg/mL), pseudovirus neutralization [35] [µg/mL]	IC50 (µg/mL), pseudovirus neutralization [36] [µg/mL]	IC50 (µg/mL), pseudovirus neutralization [37] [µg/mL]	IC50, pseudovirus neutralization [38] [µg/mL]	IC50, pseudovirus neutralization [39] [µg/mL]	IC50, pseudovirus neutralization [40] [µg/mL]	IC50 (µg/mL), pseudovirus neutralization [30] [µg/mL]	IC50 (µg/mL), pseudovirus neutralization [31] [µg/mL]	IC50 (µg/mL), pseudovirus neutralization [32] [µg/mL]	other results
5345_I01 (PGT-137) (antibody)	> 50	> 50																IC50 [1]: > 50 µg/mL; IC50 [2]: > 50 µg/mL; IC50 (µg/mL), pseudovirus neutralization [3]: 1.22 µg/mL; IC50 neutralization [4]: 0.408 µg/mL; IC50 (µg/mL), pseudovirus neutralization [5]: > 50 µg/mL; IC50 (µg/mL), pseudovirus neutralization [6]: > 50 µg/mL; IC50 (µg/mL), pseudovirus neutralization [7]: > 50 µg/mL; IC50 (µg/mL), pseudovirus neutralization [10]: > 50 µg/mL; IC50 neutralization [11]: > 50 µg/mL; IC50 neutralization [12]: 32.9 µg/mL; IC50 (µg/mL), pseudovirus neutralization [13]: > 50 µg/mL; IC50 (µg/mL), pseudovirus neutralization [14]: > 50 µg/mL; IC50 (µg/mL), pseudovirus neutralization [15]: > 50 µg/mL; IC50 (µg/mL), pseudovirus neutralization [16]: > 50 µg/mL
1496_C09 (PG9) (TCN-109) (antibody)			0.31	0.214	0.0444	0.121	0.687											IC50 (µg/ml), pseudovirus neutralization [20]: 0.03 µg/mL; IC50 (µg/ml), pseudovirus neutralization [21]: 5.43 µg/mL; IC50 [22]: 0.16 µg/mL; IC50 [23]: 1.37 µg/mL; IC50 [24]: 0.16 µg/mL; IC50, pseudovirus neutralization [25]: 12.9 µg/mL; IC50 (µg/ml), pseudovirus neutralization [28]: 0.37 µg/mL; IC50 (µg/ml), pseudovirus neutralization [29]: 11.2 µg/mL
VRC01 (antibody)	0.167	0.217																IC50 [30]: 0.17 µg/mL; IC50 [31]: 0.039 µg/mL; IC50 [32]: 0.055 µg/mL
4877_D15 (PGT-122) (antibody)			1.46	0.0851	0.0115	2.06	> 10	> 50	0.138	5.66	> 50	0.005	> 50	> 50	0.152	2.3	0.277	neutralization IC50 (pseudovirus) [33]: 0.522 µg/mL
4995_E20 (PGT-142) (antibody)	> 50	> 50																IC50 (neutralizing activity, pseudovirus) [33]: 0.393 µg/mL
4980_N08 (PGT-143) (antibody)	> 50	> 50																IC50 (neutralizing activity, pseudovirus) [33]: 0.618 µg/mL
PGV04 (antibody)																		IC50 [3]: 1.32 µg/mL
4993_K13 (PGT-141) (antibody)	> 50	> 50																IC50 (neutralizing activity, pseudovirus) [33]: 0.616 µg/mL
4970_K22 (PGT-144) (antibody)	> 50	> 50																IC50 (neutralizing activity, pseudovirus) [33]: 5.12 µg/mL
5123_A06 (PGT-125) (antibody)			0.0124	0.0359	0.0382	5.78	> 10	> 50	> 50	> 50	> 50	0.118	0.371	> 50	> 50	> 50	> 50	neutralization IC50 (pseudovirus) [33]: 7.31 µg/mL
5141_B17 (PGT-126) (antibody)			0.0091	0.0249	0.0093	0.283	> 10	24.5	> 50	> 50	0.052	0.039	> 50	> 50	> 50	> 50	> 50	neutralization IC50 (pseudovirus) [33]: 0.501 µg/mL; IC50, pseudovirus neutralization [41]: > 10 µg/mL; IC80 (pseudovirus neutralization) [41]: > 10 µg/mL; IC90 (pseudovirus neutralization) [41]: > 10 µg/mL; IC95 (pseudovirus neutralization) [41]: > 10 µg/mL
5136_H01 (PGT-131) (antibody)	4.8	> 50																IC50 [1]: 0.048 µg/mL; IC50 [2]: > 50 µg/mL; IC50 (µg/mL), pseudovirus neutralization [3]: 35.3 µg/mL; IC50 neutralization [4]: > 50 µg/mL; IC50 (µg/mL), pseudovirus neutralization [5]: 19.6 µg/mL; IC50 (µg/mL), pseudovirus neutralization [6]: > 50 µg/mL; IC50 (µg/mL), pseudovirus neutralization [7]: 0.01 µg/mL; IC50 (µg/mL), pseudovirus neutralization [10]: > 50 µg/mL; IC50 neutralization [11]: > 50 µg/mL; IC50 neutralization [12]: 0.053 µg/mL; IC50 (µg/mL), pseudovirus neutralization [13]: > 50 µg/mL; IC50 (µg/mL), pseudovirus neutralization [14]: 0.78 µg/mL; IC50 (µg/mL), pseudovirus neutralization [15]: > 50 µg/mL; IC50 (µg/mL), pseudovirus neutralization [16]: > 50 µg/mL
4858_P08 (PGT-123) (antibody)			0.846	0.0328	0.0047	0.443	> 10	> 50	0.15	> 50	> 50	0.012	> 50	> 50	0.08	0.307	0.075	neutralization IC50 (pseudovirus) [33]: 0.18 µg/mL
5114_A19 (PGT-128) (antibody)	0.069	0.522																IC50 [1]: 0.006 µg/mL; IC50 [2]: > 50 µg/mL; IC50 (µg/mL), pseudovirus neutralization [3]: 0.015 µg/mL; IC50 neutralization [4]: 0.014 µg/mL; IC50 (µg/mL), pseudovirus neutralization [5]: 0.019 µg/mL; IC50 (µg/mL), pseudovirus neutralization [6]: 0.051 µg/mL; IC50 (µg/mL), pseudovirus neutralization [7]: 0.005 µg/mL; IC50 (µg/mL), pseudovirus neutralization [10]: > 50 µg/mL; IC50 neutralization [11]: > 50 µg/mL; IC50 neutralization [12]: 0.007 µg/mL; IC50 (µg/mL), pseudovirus neutralization [13]: > 50 µg/mL; IC50 (µg/mL), pseudovirus neutralization [14]: 0.042 µg/mL; IC50 (µg/mL), pseudovirus neutralization [15]: > 50 µg/mL; IC50 (µg/mL), pseudovirus neutralization [16]: 14.4 µg/mL
4838_L06 (PGT-121) (antibody)							> 10	> 50	0.102	> 50	> 50	0.006	> 50	> 50	0.083	0.099	0.104	
5145_B14 (PGT-127) (antibody)								> 50	> 50	> 50	1.9	0.6	> 50	> 50	> 50	> 50	> 50	
